One molecule from patent US20030171551A1 (published 2003) can be followed below.

This experiment deals with T1, soluble extracellular domain of HER2/neu (ECD) (UniProt P04626 23-652, limits assumed).
T1 construct: extracellular domain; Immobilized on the IAsys microcuvette; also called soluble HER2/neu antigen
Briefly: IAsys optical biosensor, HER2/neu ECD immobilized on the cuvette.

B1: RANTES.Her2.IgG3 (other)
chain: SPYSSDTTPCCFAYIARPLPRAHIKEYFYTSGKCSNPAVVFVTRKNRQVCANPEKKWVREYINSLEMS
For orientation: Kd means the free concentration of one partner at which half of the binding sites on the other are occupied at equilibrium, for simple one-to-one binding. Molecule B1 displayed a Kd of 53 nM.
